From patent publication US20260256934A1 (Daiichi Sankyo, published 2026)
Blank lines part the entries; values can stand above or below the binder they belong to.

Tests used:
[1] = target: T1, Recombinant Human Fc gamma RI/CD64 Protein (R&D systems) (human, UniProt P12314 16-288); assay: SPR (Biacore T200) as in Test Example 15; RU at 4.7 µM conjugate
T1 construct: His-tagged; also called human FcγRI; His-tagged human FcγRI

[2] = target: T2, Recombinant Human Fc gammaRIIA/CD32a (R167) Protein (R&D systems) (human, UniProt P12318 36-218); assay: SPR (Biacore T200) as in Test Example 16; RU at 4.7 µM conjugate
T2 construct: Bought protein; also called human FcγRIIa
T2 sequence (looked up): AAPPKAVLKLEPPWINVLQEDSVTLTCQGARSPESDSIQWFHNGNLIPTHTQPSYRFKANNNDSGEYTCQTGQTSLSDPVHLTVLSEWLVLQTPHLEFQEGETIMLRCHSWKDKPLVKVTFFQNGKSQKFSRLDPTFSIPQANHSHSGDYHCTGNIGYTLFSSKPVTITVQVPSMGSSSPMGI

[3] = target: T3, Recombinant Human Fc gamma RIIB/C (CD32b/c) Protein (R&D systems) (human, UniProt P31994 46-217); assay: SPR (Biacore T200) as in Test Example 17; RU at 4.7 µM conjugate
T3 construct: Bought protein; also called human FcγRIIb/c
T3 sequence (looked up): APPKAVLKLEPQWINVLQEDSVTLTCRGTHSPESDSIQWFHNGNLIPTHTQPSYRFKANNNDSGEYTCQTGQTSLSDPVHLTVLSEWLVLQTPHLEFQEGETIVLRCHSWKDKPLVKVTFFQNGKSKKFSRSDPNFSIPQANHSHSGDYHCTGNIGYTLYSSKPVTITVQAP

[4] = target: T2, Recombinant Human Fc gammaRIIA/CD32a …; assay: SPR (Biacore T200); FcγRIIa immobilised directly on CM5, antibody as analyte 0.9-4.7 µM
[5] = target: T1, Recombinant Human Fc gamma RI/CD64 …; assay: SPR (Biacore T200); His-tagged FcγRI captured on anti-His chip, antibody as analyte 0.3-4.7 µM
[6] = target: T3, Recombinant Human Fc gamma RIIB/C …; assay: SPR (Biacore T200); FcγRIIb/c immobilised directly on CM5, antibody as analyte 0.9-4.7 µM

T1 sequence (P12314 16-288 limits assumed): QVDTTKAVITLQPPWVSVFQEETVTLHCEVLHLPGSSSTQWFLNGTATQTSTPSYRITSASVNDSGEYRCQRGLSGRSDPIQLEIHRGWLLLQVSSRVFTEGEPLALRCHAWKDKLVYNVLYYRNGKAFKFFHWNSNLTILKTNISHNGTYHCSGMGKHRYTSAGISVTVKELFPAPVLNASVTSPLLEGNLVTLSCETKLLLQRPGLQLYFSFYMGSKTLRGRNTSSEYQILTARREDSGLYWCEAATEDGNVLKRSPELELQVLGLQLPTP

binding result [1]: binds
binding result [2]: binds
binding result [3]: binds
B1: anti-EGFR antibody 1-CDN conjugate 1 (antibody, human IgG1, kappa, L234A L235A)
heavy: QVQLQESGPGLVKPSETLSLTCTVSGGSVSSGDYYWTWIRQSPGKGLEWIGHIYYSGNTNYNPSLKSRLTISIDTSKTQFSLKLSSVTAADTAIYYCVRDRVTGAFDIWGQGTMVTVSSASTKGPSVFPLAPSSKSTSGGTAALGCLVKDYFPEPVTVSWNSGALTSGVHTFPAVLQSSGLYSLSSVVTVPSSSLGTQTYICNVNHKPSNTKVDKRVEPKSCDKTHTCPPCPAPEAAGGPSVFLFPPKPKDTLMISRTPEVTCVVVGVSHEDPEVKFNWYVDGVEVHNAKTKPREEQYNSTYRVVSVLTVLHQDWLNGKEYKCKVSNKALPAPIEKTISKAKGQPREPQVYTLPPSREEMTKNQVSLTCLVKGFYPSDIAVEWESNGQPENNYKTTPPVLDSDGSFFLYSKLTVDKSRWQQGNVFSCSVMHEALHNHYTQKSLSLSPGK
light: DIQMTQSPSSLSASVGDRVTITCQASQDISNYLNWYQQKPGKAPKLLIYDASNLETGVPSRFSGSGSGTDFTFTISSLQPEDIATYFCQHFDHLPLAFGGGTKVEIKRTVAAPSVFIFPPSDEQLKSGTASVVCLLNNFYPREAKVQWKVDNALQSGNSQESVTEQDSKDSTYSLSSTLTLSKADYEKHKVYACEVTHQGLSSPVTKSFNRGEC
modifications: CDN drug-linker 17a conjugated through the remodeled N297 glycan (SG type); average number of conjugated drugs 3.7
notes: also called modified anti-EGFR antibody 1-CDN conjugate 1; antibody-drug conjugate 1

binding result [4]: binds
binding result [5]: binds
binding result [6]: binds
B2: modified anti-EGFR antibody 1 (antibody, human IgG1, kappa, L234A L235A)
heavy: B1 heavy
light: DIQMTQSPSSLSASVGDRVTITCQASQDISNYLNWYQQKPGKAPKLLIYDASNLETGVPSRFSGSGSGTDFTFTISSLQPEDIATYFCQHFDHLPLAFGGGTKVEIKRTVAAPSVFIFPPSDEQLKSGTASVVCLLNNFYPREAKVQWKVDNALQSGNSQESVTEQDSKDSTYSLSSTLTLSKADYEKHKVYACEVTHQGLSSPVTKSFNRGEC
notes: IgG1 with L234A/L235A/D265G (LALA-DG) introduced into anti-EGFR antibody A; also called LALA-DG; LALA-DG mutant anti-EGFR antibody

binding result [1]: binds
binding result [2]: binds
binding result [3]: binds
B3: anti-EGFR antibody 1-CDN conjugate 2 (antibody, human IgG1, kappa, L234A L235A)
heavy: B1 heavy
light: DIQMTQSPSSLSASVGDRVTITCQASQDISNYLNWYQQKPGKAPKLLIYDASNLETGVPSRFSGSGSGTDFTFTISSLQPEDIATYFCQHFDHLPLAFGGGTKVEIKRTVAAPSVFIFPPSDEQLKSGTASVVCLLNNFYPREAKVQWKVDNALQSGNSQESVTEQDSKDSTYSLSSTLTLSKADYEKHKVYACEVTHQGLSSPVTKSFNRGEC
modifications: CDN drug-linker 17a conjugated through the remodeled N297 glycan (MSG1 type); average number of conjugated drugs 1.9
notes: also called modified anti-EGFR antibody 1-CDN conjugate 2; antibody-drug conjugate 2

binding result [4]: binds
binding result [5]: binds
binding result [6]: binds
B4: anti-EGFR antibody B (Vectibix) (antibody, human IgG2, kappa)
heavy: QVQLQESGPGLVKPSETLSLTCTVSGGSVSSGDYYWTWIRQSPGKGLEWIGHIYYSGNTNYNPSLKSRLTISIDTSKTQFSLKLSSVTAADTAIYYCVRDRVTGAFDIWGQGTMVTVSSASTKGPSVFPLAPCSRSTSESTAALGCLVKDYFPEPVTVSWNSGALTSGVHTFPAVLQSSGLYSLSSVVTVPSSNFGTQTYTCNVDHKPSNTKVDKTVERKCCVECPPCPAPPVAGPSVFLFPPKPKDTLMISRTPEVTCVVVDVSHEDPEVQFNWYVDGVEVHNAKTKPREEQFNSTFRVVSVLTVVHQDWLNGKEYKCKVSNKGLPAPIEKTISKTKGQPREPQVYTLPPSREEMTKNQVSLTCLVKGFYPSDIAVEWESNGQPENNYKTTPPMLDSDGSFFLYSKLTVDKSRWQQGNVFSCSVMHEALHNHYTQKSLSLSPGK
light: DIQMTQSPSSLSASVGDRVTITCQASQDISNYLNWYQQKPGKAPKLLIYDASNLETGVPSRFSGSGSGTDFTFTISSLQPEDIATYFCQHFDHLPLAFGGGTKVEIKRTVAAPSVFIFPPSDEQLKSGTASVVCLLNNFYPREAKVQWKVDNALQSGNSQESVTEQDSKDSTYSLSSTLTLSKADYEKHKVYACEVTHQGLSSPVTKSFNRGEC
notes: Commercial Vectibix (IgG2), buffer-exchanged into HBS-EP+; also called anti-EGFR antibody (IgG2); IgG2

binding result [1]: binds
binding result [2]: binds
binding result [3]: binds
B5: anti-EGFR antibody B-CDN conjugate 2 (antibody, human IgG2, kappa)
heavy: B4 heavy
light: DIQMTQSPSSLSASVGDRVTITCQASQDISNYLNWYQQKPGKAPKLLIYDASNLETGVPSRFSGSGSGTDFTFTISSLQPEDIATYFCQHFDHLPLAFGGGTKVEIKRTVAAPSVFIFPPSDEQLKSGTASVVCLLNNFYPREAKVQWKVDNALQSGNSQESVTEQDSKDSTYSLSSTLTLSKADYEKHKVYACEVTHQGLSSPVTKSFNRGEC
modifications: CDN drug-linker 17a conjugated through the remodeled N297 glycan (MSG1 type); average number of conjugated drugs 1.9
notes: Antibody-drug conjugate of Vectibix (IgG2), DAR about 2; Light chain is inferred as for m1; also called antibody-drug conjugate 8
